Results from PMC12428694, “A New β-Galactosidase from Pseudomonas tritici SWRI145 for Efficient Bioproduction of Galactooligosaccharides” (Foods, 2025).

System: O=[N+]([O-])c1ccccc1O[C@@H]1O[C@H](CO)[C@H](O)[C@H](O)[C@H]1O
Test: purified protein
Assay type: biochemical, Pseudomonas tritici
Conditions: 50 mM HEPES pH 7.5, 50 °C, 5 min, 0.3-60 mM ONPG, 1 mM Mg2+ probably present

Pstr β-galactosidase (Pseudomonas tritici)
Km: 3000 µM
kcat: 643.98 s⁻¹
